Test results as given in IntAct's records for PubMed 24291004.

B1: Glucocorticoid receptor (Homo sapiens), P04150 (parent)
chain: MDSKESLTPGREENPSSVLAQERGDVMDFYKTLRGGATVKVSASSPSLAVASQSDSKQRRLLVDFPKGSVSNAQQPDLSKAVSLSMGLYMGETETKVMGNDLGFPQQGQISLSSGETDLKLLEESIANLNRSTSVPENPKSSASTAVSAAPTEKEFPKTHSDVSSEQQHLKGQTGTNGGNVKLYTTDQSTFDILQDLEFSSGSPGKETNESPWRSDLLIDENCLLSPLAGEDDSFLLEGNSNEDCKPLILPDTKPKIKDNGDLVLSSPSNVTLPQVKTEKEDFIELCTPGVIKQEKLGTVYCQASFPGANIIGNKMSAISVHGVSTSGGQMYHYDMNTASLSQQQDQKPIFNVIPPIPVGSENWNRCQGSGDDNLTSLGTLNFPGRTVFSNGYSSPSMRPDVSSPPSSSSTATTGPPPKLCLVCSDEASGCHYGVLTCGSCKVFFKRAVEGQHNYLCAGRNDCIIDKIRRKNCPACRYRKCLQAGMNLEARKTKKKIKGIQQATTGVSQETSENPGNKTIVPATLPQLTPTLVSLLEVIEPEVLYAGYDSSVPDSTWRIMTTLNMLGGRQVIAAVKWAKAIPGFRNLHLDDQMTLLQYSWMFLMAFALGWRSYRQSSANLLCFAPDLIINEQRMTLPCMYDQCKHMLYVSSELHRLQVSYEEYLCMKTLLLLSSVPKDGLKSQELFDEIRMTYIKELGKAIVKREGNSSQNWQRFYQLTKLLDSMHEVVENLLNYCFQTFLDKTMSIEFPEMLAEIITNQIPKYSNGNIKKLLFHQK

Variants of: B1
Details: with akt1_human AKT1, P31749
Chain of akt1_human AKT1, P31749 (P31749 whole entry): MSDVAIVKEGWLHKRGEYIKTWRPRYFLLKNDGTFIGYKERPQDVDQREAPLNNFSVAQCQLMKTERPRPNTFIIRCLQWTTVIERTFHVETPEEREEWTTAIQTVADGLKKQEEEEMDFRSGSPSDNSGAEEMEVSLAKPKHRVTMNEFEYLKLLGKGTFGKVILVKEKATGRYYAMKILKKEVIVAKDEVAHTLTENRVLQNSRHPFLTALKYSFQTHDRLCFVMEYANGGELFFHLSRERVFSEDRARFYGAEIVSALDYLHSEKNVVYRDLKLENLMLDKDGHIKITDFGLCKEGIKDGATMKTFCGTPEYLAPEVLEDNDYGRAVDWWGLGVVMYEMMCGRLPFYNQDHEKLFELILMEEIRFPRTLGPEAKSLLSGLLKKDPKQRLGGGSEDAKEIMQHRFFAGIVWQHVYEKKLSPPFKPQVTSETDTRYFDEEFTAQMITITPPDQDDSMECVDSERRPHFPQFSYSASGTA

| effect of a mutation on the interaction | Variant |
| --- | --- |
| disrupting interaction | S134A |
